# “And” between values parts separate entries of the source, which are not always exact repeats. Equal values may be shown once.
# B1: Maltogenic amylase (MAase) ThMA from the Thermus strain (enzyme)
# chain: MRKEAIHHRSTDNFAYAYDSETLHLRLQTKKNDVDHVELLFGDPYEWHDGAWQFQTMPMRKTGSDGLFDYWLAEVKPPYRRLRYGFVLRAGGEKLVYTEKGFYHEAPSDDTAYYFCFPFLHRVDLFQAPDWVKDTVWYQIFPERFANGNPAISPKGARPWGSEDPTPTSFFGGDLQGIIDHLDYLADLGITGIYLTPIFRAPSNHKYDTADYFEIDPHFGDKETLKTLVKRCHEKGIRVMLDAVFNHCGYEFAPFQDVLKNGAASRYKDWFHIREFPLQTEPRPNYDTFAFVPHMPKLNTAHPEVKRYLLDVATYWIREFDIDGWRLDVANEIDHQFWREFRQAVKALKPDVYILGEIWHDAMPWLRGDQFDAVMNYPLADAALRFFAKEDMSASEFADRLMHVLHSYPKQVNEAAFNLLGSHDTPRLLTVCGGDVRKVKLLFLFQLTFTGSPCIYYGDEIGMTGGNDPECRKCMVWDPEKQNKELYEHVKQLIALRKQYRALRRGDVAFLTADDEVNHLVYAKTDGNETVMIIINRSNEAAEIPMPIDARGKWLVNLLTGERFAAEAETLCVSLPPYGFVLYAVESW
# notes: ThMA, maltogenic amylase of a Thermus strain (AAC15072.1); used as the control in analytical ultracentrifugation; the construct is not described
# Molecular target: the molecule itself
# Assay: AUC; sedimentation velocity, 50 mM Na2HPO4-NaH2PO4 buffer pH 7.0, 20 °C, 38,000 rpm, absorbance at 280 nm, c(s) model in SEDFIT; oligomeric state
protein,measurement,value
B1,stoichiometry N,2 and 4

# From PMC9267027, “Discovery of a New Microbial Origin Cold-Active Neopullulanase Capable for Effective Conversion of Pullulan to Panose” (International Journal of Molecular Sciences, 2022)
